Laboratory results from US20210309709A1 (AKSTON BIOSCIENCES, published 2021).
Substitutions are numbered along the chain they refer to.

B1: insulin-Fc fusion protein of SEQ ID NO: 36 (Fc fusion)
chain: FVNQHLCGSDLVEALALVCGERGFFYTDPTGGGPRRGIVEQCCHSICSLYQLENYCNGGGGAGGGGDCPKCPAPEMLGGPSVFIFPPKPKDTLLIARTPEVTCVVVDLDPEDPEVQISWFVDGKQMQTAKTQPREEQFNGTYRVVSVLPIGHQDWLKGKQFTCKVNNKALPSPIERTISKARGQAHQPSVYVLPPSREELSKNTVSLTCLIKDFFPPDIDVEWQSNGQQEPESKYRTTPPQLDEDGSYFLYSKLSVDKSRWQRGDTFICAVMHEALHNHYTQESLSHSPG
modifications: native N-glycosylation site cNg-NB139
notes: HEK293, Protein A
B2: insulin-Fc fusion protein of SEQ ID NO: 42 (Fc fusion)
chain: B1 chain with N139K
notes: also called cNg-NB139-K; cNg-K
B3: insulin-Fc fusion protein of SEQ ID NO: 41 (Fc fusion)
chain: B1 chain with N139D
notes: also called cNg-NB139-D; cNg-D
B4: insulin-Fc fusion protein of SEQ ID NO: 40 (Fc fusion)
chain: B1 chain with N139S
notes: non-glycosylated canine IgGB Fc; also called cNg-NB139-S; cNg-S
B5: insulin-Fc fusion protein of SEQ ID NO: 58 (Fc fusion)
chain: FVNQHLCGSHLVEALELVCGERGFHYGGGGGGSGGGGGIVEQCCTSTCSLDQLENYCGGGGGQGGGGQGGGGQGGGGGRCTDTPPCPVPEPLGGPSVLIFPPKPKDILRITRTPEVTCVVLDLGREDPEVQISWFVDGKEVHTAKTQSREQQFNGTYRVVSVLPIEHQDWLTGKEFKCRVNHIDLPSPIERTISKARGRAHKPSVYVLPPSPKELSSSDTVSITCLIKDFYPPDIDVEWQSNGQQEPERKHRMTPPQLDEDGSYFLYSKLSVDKSRWQQGDPFTCAVMHETLQNHYTDLSLSHSPG
notes: purified on Protein A or Protein G
B6: insulin-Fc fusion protein of SEQ ID NO: 26 (Fc fusion)
chain: FVNQHLCGSHLVEALELVCGERGFHYGGGGGGSGGGGGIVEQCCTSTCSLDQLENYCGGGGGQGGGGQGGGGQGGGGGDCPKCPAPEMLGGPSVFIFPPKPKDTLLIARTPEVTCVVVDLDPEDPEVQISWFVDGKQMQTAKTQPREEQFNGTYRVVSVLPIGHQDWLKGKQFTCKVNNKALPSPIERTISKARGQAHQPSVYVLPPSREELSKNTVSLTCLIKDFFPPDIDVEWQSNGQQEPESKYRTTPPQLDEDGSYFLYSKLSVDKSRWQRGDTFICAVMHEALHNHYTQESLSHSPG
modifications: native N-glycosylation site cNg-NB151
B7: insulin-Fc fusion protein of SEQ ID NO: 62 (Fc fusion)
chain: B6 chain with N151S
notes: also called cNg-NB151-S
B8: insulin-Fc fusion protein of SEQ ID NO: 61 (Fc fusion)
chain: B6 chain with D119A, N151S
notes: also called cNg-NB151-S, NB119-A
B9: insulin-Fc fusion protein of SEQ ID NO: 30 (Fc fusion)
chain: B6 chain with E16A, N151S
B10: insulin-Fc fusion protein of SEQ ID NO: 75 (Fc fusion)
chain: FVNQHLCGSHLVEALELVCGERGFHYGGGGGGSGGGGGIVEQCCTSTCSLDQLENYCGGGGGQGGGGQGGGGQGGGGGECPPCPAPPVAGPSVFLFPPKPKDTLMISRTPEVTCVVVDVSHEDPEVQFNWYVDGVEVHNAKTKPREEQFNSTFRVVSVLTVVHQDWLNGKEYKCKVSNKGLPAPIEKTISKTKGQPREPQVYTLPPSREEMTKNQVSLTCLVKGFYPSDIAVEWESNGQPENNYKTTPPMLDSDGSFFLYSKLTVDKSRWQQGNVFSCSVMHEALHNHYTQKSLSLSPG
notes: HEK293, Protein A; also called hIgG2

Biological target: T1, biotinylated recombinant human Fc(gamma)RI (R&D Systems) (human, UniProt P12314 16-288)
T1 construct: soluble in ELISA; also called rhFc(gamma)RI; Fc(gamma) receptor I
T1 sequence (P12314 16-288 limits assumed): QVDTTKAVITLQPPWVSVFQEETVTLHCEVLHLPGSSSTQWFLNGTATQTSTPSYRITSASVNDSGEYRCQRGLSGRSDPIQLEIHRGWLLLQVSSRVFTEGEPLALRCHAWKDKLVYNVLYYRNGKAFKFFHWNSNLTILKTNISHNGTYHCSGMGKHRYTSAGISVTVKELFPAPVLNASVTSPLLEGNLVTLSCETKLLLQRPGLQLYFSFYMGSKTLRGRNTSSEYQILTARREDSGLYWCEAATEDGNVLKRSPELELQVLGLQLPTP
Experiment: ELISA, fusion coated, biotinylated rhFc(gamma)RI (concentration not clear from the table head)
Description: (§1) The binding of insulin-Fc fusion proteins to the Fc(gamma)RI at pH 7.4 is conducted using an ELISA assay as follows using human Fc(gamma)RI (i.e., rhFc(gamma)RI). Insulin-Fc fusion proteins are diluted to 10 μg/mL in sodium bicarbonate buffer at pH 9.6 and coated on Maxisorp (Nunc) microtiter plates overnight at 4° C., after which the microplate strips are washed 5 times with PBST (PBS/0.05% Tween-20) buffer and blocked with Superblock blocking reagent (ThermoFisher). Serial dilutions of biotinylated rhFc(gamma)RI (recombinant human Fc(gamma)RI; R&D Systems) are prepared in PBST/10% Superblock buffer from 3000 ng/mL to 4.1 ng/mL and loaded at 100 μL/well onto the microplate strips coated with insulin-Fc fusion protein. The microtiter plate is incubated for 1 hour at room temperature after which time the microplate strips are washed 5 times with PBST and then loaded with 100 μL/well of streptavidin-HRP diluted 1:10000 in PBST/10% Superblock buffer. After incubating for 45 min, the microplate strips are washed again 5 times with PBST. TMB is added to reveal the bound Fc(gamma)RI proteins and is stopped with ELISA stop reagent (Boston Bioproducts). The plate is read in an ELISA plate reader at 450 nm, and the OD450 values (proportional to the binding of rhFc(gamma)RI to insulin-Fc protein) are plotted against log concentrations of rhFc(gamma)RI added to each well to generate binding curves using GraphPad Prism software. For groupings of compounds with somewhat similar curves, the OD450 at one of the higher concentrations, for instance at rhFc(gamma)RI concentrations of 3000 ng/mL, can be used to identify differences between coated insulin-Fc fusion protein compounds. […]

Binder | OD450 nm [OD450] | OD450 nm minus assay background [OD450] | ratio to SEQ ID NO: 36 [ratio]
B1 | 0.386 | 0.323 | 1
B2 | 0.126 | 0.063 | 0.2
B3 | 0.204 | 0.141 | 0.44
B4 | 0.14 | 0.077 | 0.24

Biological target: T1, biotinylated recombinant human …
Experiment: ELISA, fusion coated, biotinylated rhFc(gamma)RI at 3000 ng/mL
Description: as §1
Finally, select compounds were tested for their likelihood to interact with the immune system by measuring their Fc(gamma) receptor binding activity according to the procedure of Example 15.

Binder | OD450 nm [OD450] | OD450 nm minus assay background [OD450] | ratio to SEQ ID NO: 36 [ratio]
B5 | 0.253 | 0.196 | 0.53
B1 | 0.428 | 0.371 | 1
B6 | 0.368 | 0.311 | 0.84
B7 | 0.175 | 0.118 | 0.32
B8 | 0.166 | 0.109 | 0.29
B9 | 0.177 | 0.12 | 0.32

Biological target: T1, biotinylated recombinant human …
Experiment: as above
Remark: another data set of the same source
Description: The binding of insulin-Fc fusion proteins to the Fc(gamma)RI at pH 7.4 was conducted using an ELISA assay as follows using human Fc(gamma)RI (i.e., rhFc(gamma)RI). Insulin-Fc fusion proteins were diluted to 10 μg/mL in sodium bicarbonate buffer at pH 9.6 and coated on Maxisorp (Nunc) microtiter plates overnight at 4° C., after which the microplate strips were washed 5 times with PBST (PBS/0.05% Tween-20) buffer and blocked with Superblock blocking reagent (ThermoFisher). […] The plate was read in an ELISA plate reader at 450 nm, and the OD450 values (proportional to the binding of rhFc(gamma)RI to insulin-Fc protein) were plotted against log concentrations of rhFc(gamma)RI added to each well to generate binding curves using GraphPad Prism software. […] In order to compare differences across multiple insulin-Fc fusion proteins run at different times, the human Fc(gamma)RI assay OD450 Ratio was calculated as the OD450 value of a test insulin-Fc fusion protein compound obtained at a biotinylated-Fc(gamma)RI concentration of 3000 ng/mL, divided by the OD450 value of a reference insulin-Fc fusion protein of SEQ ID NO: 76 obtained at a biotinylated-Fc(gamma)RI concentration of 3000 ng/mL.

Binder | OD450 Ratio to SEQ ID NO: 76 [ratio]
B10 | 0.045

Biological target: T2, biotinylated human complement component C1q (Sigma-Aldrich) (human, UniProt P02745 23-245; P02746 28-253; P02747 29-245)
T2 construct: Sigma-Aldrich', a protein complex; also called complement component 1q; biotinylated-C1q
T2 sequence (P02745 23-245 limits assumed, chain 1 of 3): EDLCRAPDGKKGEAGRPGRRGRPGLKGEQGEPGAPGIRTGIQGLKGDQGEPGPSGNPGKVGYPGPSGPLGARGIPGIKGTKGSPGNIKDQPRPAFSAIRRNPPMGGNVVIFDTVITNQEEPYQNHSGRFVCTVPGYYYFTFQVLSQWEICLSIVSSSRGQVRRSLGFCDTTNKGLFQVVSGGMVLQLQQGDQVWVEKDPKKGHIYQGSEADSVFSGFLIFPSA
T2 sequence (P02746 28-253 limits assumed, chain 2 of 3): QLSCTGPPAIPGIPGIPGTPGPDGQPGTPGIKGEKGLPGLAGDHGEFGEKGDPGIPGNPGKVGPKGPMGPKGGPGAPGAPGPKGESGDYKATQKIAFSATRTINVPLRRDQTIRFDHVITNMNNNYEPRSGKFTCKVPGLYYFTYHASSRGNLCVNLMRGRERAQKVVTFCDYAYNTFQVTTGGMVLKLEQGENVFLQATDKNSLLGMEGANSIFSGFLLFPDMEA
T2 sequence (P02747 29-245 limits assumed, chain 3 of 3): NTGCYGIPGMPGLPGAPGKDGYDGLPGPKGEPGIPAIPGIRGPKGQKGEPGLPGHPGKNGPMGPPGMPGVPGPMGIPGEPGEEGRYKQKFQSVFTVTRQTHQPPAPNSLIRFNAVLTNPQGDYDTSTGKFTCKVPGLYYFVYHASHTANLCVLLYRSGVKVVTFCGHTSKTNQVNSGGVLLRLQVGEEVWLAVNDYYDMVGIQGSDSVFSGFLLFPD
Experiment: ELISA, fusion coated, biotinylated human C1q at 1000 ng/mL

Binder | OD450 Ratio to SEQ ID NO: 76 [ratio]
B10 | 0.309
